{"source": "patent US20180021429A1", "about": "“ANTICANCER AGENTS OR ANTIMETASTATIC AGENTS USING FSTL1 AND COMBINATION DRUG THEREOF” (PHARMA FOODS INTERNATIONAL CO., LTD., priority 2015, published 2018)", "molecules": {"B1": {"name": "#10: chicken-mouse chimeric anti-FSTL1 antibody clone; variable regions SEQ ID NO: 811 (light), 813 (heavy) (antibody, V domains shown)", "VH": "AVTLDESGGGLQTPGGALSLVCKASGFFFFRIYDMGWVRQAPGKGLEWVAGIDDYGRYTGYGSAVKGRATISRDNGQSTVRLQLNNLRAEDTGTYYCARGAGTGCNSAGCGAYAGSIDAWGHGTEVIVSS", "VL": "ASTQPSSVSANPGETVKLTCSGGGSRYGWYQQKSPGSAPVTVIYYNDKRPSDIPSRFSGSKSGSTATLTITGVQAEDEAVYFCGGYDGSRDAGIFGAGTTLTVL", "modifications": "mouse constant regions"}}, "key": {"[1]": {"system": "C57/BL/6 mouse-derived spleen cells", "assay": "Treg induction inhibition test using mouse spleen cells stimulated with FSTL1 (Example 28)", "assay_type": "cell-based", "settings": "FSTL1 5 ng/ml, antibody 5 μg/mL, 3 days; FIG. 116", "description": "(§1) In this Example, the experiment was conducted according to Example 17. Specifically, 5 μg/mL of each antibody was added to a system in which C57/BL/6 mouse-derived spleen cells (2×10^6 cells) were stimulated with 5 ng/ml of FSTL1. After culture for 3 days, the percentage (%) of a Foxp3+CTLA4+ cell fraction in CD4+ T cells was analyzed as Treg cells by flow cytometry. Activity was compared with #6-55 used in the preceding studies."}, "[2]": {"system": "GFP+F10-snail+ tumor cells", "assay": "In vivo drug efficacy of each anti-FSTL1 antibody clone, Snail+ tumor bone metastasis model (Example 32)", "design": "species or system mouse", "description": "(§2) • Day 0: transplantation of GFP+F10-snail+ tumor cells (3×10^5 cells subcutaneously & 2×10^4 cells intravenously) • Day 4: intraperitoneal administration of the antibody (first dose, 10 mg/kg) • Day 7: intraperitoneal administration of the antibody (second dose, 10 mg/kg)\n(§3) Subcutaneous tumor was measured 4, 7, 10, 14, 17, 20, and 23 days after tumor cell transplantation."}, "[3]": {"system": "GFP+F10-snail+ tumor cells", "assay": "In vivo drug efficacy of each anti-FSTL1 antibody clone, GFP+F10-snail+ tumor model (Example 32)", "design": "species or system mouse", "description": "as §2, §3\nExperiment Group (n=5) Control IgG (anti-DNP mAb) • #6-55 • #7 • #10 • #13 • #33\n• Day 0: transplantation of GFP+F10-snail+ tumor cells (3×10^5, cells subcutaneously & 2×10^4 cells intravenously) • Day 4: intraperitoneal administration of the antibody (first dose, 10 mg/kg) • Day 7: intraperitoneal administration of the antibody (second dose, 10 mg/kg)"}, "FSTL1 [4]": {"target": "T1, FSTL1 (Homo sapiens, UniProt Q12841)", "T1 sequence (Q12841 21-308)": "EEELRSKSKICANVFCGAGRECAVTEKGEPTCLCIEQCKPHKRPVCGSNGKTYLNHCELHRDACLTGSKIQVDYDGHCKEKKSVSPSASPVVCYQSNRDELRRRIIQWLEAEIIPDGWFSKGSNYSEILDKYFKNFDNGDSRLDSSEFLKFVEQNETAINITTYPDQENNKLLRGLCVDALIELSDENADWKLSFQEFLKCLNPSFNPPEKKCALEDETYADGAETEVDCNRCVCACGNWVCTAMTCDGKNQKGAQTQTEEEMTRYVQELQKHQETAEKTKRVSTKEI", "assay": "Treg induction inhibition test using mouse spleen cells stimulated with FSTL1 (Example 28)", "assay_type": "cell-based", "design": "purchased R&D Systems, Inc. 1694-FN-050", "settings": "FSTL1 5 ng/ml, antibody 5 μg/mL, 3 days", "description": "as §1\nas §1, with “[…]” for “#6-55”"}, "[5]": {"system": "C57/BL/6 mouse-derived bone marrow cells", "assay": "MSC induction inhibition test using mouse bone marrow cells stimulated with FSTL1 (Example 27)", "assay_type": "cell-based", "settings": "FSTL1 20 ng/mL, antibody 10 μg/mL, 8 days; flow cytometry; FIG. 115A", "description": "(§4) In this Example, the inhibitory activity of the anti-FSTL1 antibody was confirmed in an experimental system of mesenchymal stem cell induction while a FSTL1 inhibitory effect on MSC expansion induced not only by FSTL1 but by Snail+ tumor cells was also evaluated. For specific operation, each antibody (10 μg/mL) was added to systems in which C57/BL/6 mouse-derived bone marrow cells were stimulated with FSTL1 (20 ng/mL) or a culture supernatant of tumor cells. After culture for 8 days under stimulation, cell fraction CD45(−) cells (MSCs) containing MSCs at a high rate and CD45(−)CD146(+)ALCAM(+) cells (sMSCs) increasing in number in association with cancer metastasis were analyzed by flow cytometry in the same way as in Example 14, and the number of cells per culture system was counted. In this Example, mouse immunoglobulin manufactured by BioLegend, Inc. (#401408, Cone MG1-45) was used as a control antibody."}, "FSTL1 [6]": {"target": "T1, FSTL1", "assay": "Affinity of mouse chimeric antibodies for human FSTL1, Biacore T-200 (Example 33)", "assay_type": "binding", "description": "(§5) The mouse chimeric antibodies were immobilized onto Sensor Chip CM5 (GE Healthcare Japan Corp., BR-1005-30) using Mouse Antibody Capture Kit (GE Healthcare Japan Corp., BR-1008-38), and their affinity for human FSTL1 was calculated using Biacore T-200 (GE Healthcare Japan Corp.).\nFirst, the exhaustive activity comparison of the obtained antibodies was conducted with the human FSTL1 concentration fixed to 10 μg/ml (Table 33-1, FIG. 58).\nNext, the KD values of clone #6-55, #7-34, and #13 presumed to have high affinity in FIG. 58 were calculated with the antigen concentration adjusted to 0 to 20 μg/ml (Table 35-2).\nFirst, the exhaustive activity comparison of the obtained antibodies was conducted with the human FSTL1 concentration fixed to 10 μg/ml (Table 33-1, FIG. 90).\nNext, the KD values of clone #6-55, #7-34, and #13 presumed to have high affinity in FIG. 90 were calculated with the antigen concentration adjusted to 0 to 20 μg/ml (Table 35-2)."}, "[7]": {"system": "C57/BL/6 mouse-derived bone marrow cells", "assay": "MSC induction inhibition test using mouse bone marrow cells, FSTL1 stimulation (Example 27)", "assay_type": "cell-based", "settings": "FSTL1 20 ng/mL; antibody 10 μg/mL; 8 days; FIG. 21A", "description": "as §4"}, "FSTL1 [8]": {"target": "T1, FSTL1", "assay": "MSC induction inhibition test using mouse bone marrow cells stimulated with FSTL1 (Example 27)", "assay_type": "cell-based", "design": "purchased R&D Systems, Inc. 1694-FN-050", "settings": "FSTL1 20 ng/mL, antibody 10 μg/mL, 8 days", "description": "as §4, with “([…],” for “(#401408,”\nas §4"}, "[9]": {"system": "GFP+F10-snail+ tumor cells", "assay": "In vivo drug efficacy of each anti-FSTL1 antibody clone, GFP+F10-snail+ tumor model (Example 32)", "design": "species or system mouse", "description": "as §2, §3", "remark": "listed apart in the source"}, "FSTL1 [10]": {"target": "T1, FSTL1", "assay": "Affinity of mouse chimeric antibodies, Biacore T-200 (Example 33)", "assay_type": "binding", "description": "as §5\nFirst, the exhaustive activity comparison of the obtained antibodies was conducted with the human FSTL1 concentration fixed to 10 μg/ml (Table 33-1, FIG. 28).\nNext, the KD values of clone #6-55, #7-34, and #13 presumed to have high affinity in FIG. 28 were calculated with the antigen concentration adjusted to 0 to 20 μg/ml (Table 35-2)."}, "FSTL1 [11]": {"target": "T1, FSTL1", "assay": "Biacore T-200 affinity of mouse chimeric antibodies for human FSTL1 (Example 33)", "assay_type": "binding", "description": "as §5\nFirst, the exhaustive activity comparison of the obtained antibodies was conducted with the human FSTL1 concentration fixed to 10 μg/ml (Table 33-1, FIG. 122).\nNext, the KD values of clone #6-55, #7-34, and #13 presumed to have high affinity in FIG. 122 were calculated with the antigen concentration adjusted to 0 to 20 μg/ml (Table 35-2)."}, "[12]": {"system": "C57/BL/6 mouse-derived spleen cells", "assay": "Treg induction inhibition test using mouse spleen cells (Example 28)", "assay_type": "cell-based", "settings": "FSTL1 5 ng/ml; antibody 5 μg/mL; 3 days; FIG. 22", "description": "as §1"}}, "data": [{"molecule": "B1", "values": [{"measurement": "Treg induction (Foxp3+CTLA4+ fraction in CD4+ T cells)", "setting": "[1]", "result": "strong suppressive activity equal to or higher than that of #6-55"}, {"measurement": "mouse survival period (life-prolonging effect)", "setting": "[2]; intraperitoneal 10 mg/kg on days 4 and 7, FIG. 27", "result": "therapeutic effects equal to or higher than those of #6-55"}, {"measurement": "comprehensive evaluation of antitumor activity", "setting": "[2]; mouse, in vivo", "result": "high antitumor activity exceeding that of #6-55"}, {"measurement": "mouse survival period (life-prolonging effect)", "setting": "[3]; intraperitoneal 10 mg/kg on days 4 and 7, vs control antibody", "result": "therapeutic effects equal to or higher than those of #6-55"}, {"measurement": "comprehensive evaluation of antitumor activity", "setting": "[3]; mouse, in vivo", "result": "high antitumor activity exceeding that of #6-55"}, {"measurement": "Treg induction (Foxp3+CTLA4+ fraction in CD4+ T cells)", "setting": "FSTL1 [4]", "result": "strong suppressive activity equal to or higher than that of #6-55"}, {"measurement": "MSC induction inhibitory effect", "setting": "[5]", "result": "strong inhibitory effect equivalent to or higher than that of #6-55"}, {"measurement": "affinity in an assay system using surface plasmon resonance", "setting": "FSTL1 [6]", "result": "strong affinity"}, {"measurement": "MSC induction inhibitory activity (CD45(−) MSCs, CD45(−)CD146(+)ALCAM(+) sMSCs)", "setting": "[7]", "result": "high MSC induction inhibitory activity equivalent to or higher than that of #6-55"}, {"measurement": "MSC induction inhibitory activity, reproducibility confirmed", "setting": "FSTL1 [8]", "result": "high MSC induction inhibitory activity equivalent to or higher than that of #6-55"}, {"measurement": "inhibitory effect in the MSC induction inhibition test (CD45(−) MSCs and sMSCs, flow cytometry)", "setting": "FSTL1 [8]", "result": "strong inhibitory effect equivalent to or higher than that of #6-55"}, {"measurement": "mouse survival period (life-prolonging effect)", "setting": "[9]; intraperitoneal 10 mg/kg on days 4 and 7, FIG. 121", "result": "therapeutic effects equal to or higher than those of #6-55"}, {"measurement": "comprehensive evaluation of antitumor activity", "setting": "[9]; stated as a possibility", "result": "high antitumor activity exceeding that of #6-55"}, {"measurement": "affinity in surface plasmon resonance assay", "setting": "FSTL1 [10]", "result": "strong affinity"}, {"measurement": "affinity in an assay system using surface plasmon resonance", "setting": "FSTL1 [11]", "result": "strong affinity"}, {"measurement": "Treg induction (Foxp3+CTLA4+ cell fraction in CD4+ T cells)", "setting": "[12]", "result": "strong suppressive activity equal to or higher than that of #6-55"}]}]}
